Results taken from the supplement of paper PMC9112550, “Optimization of the antimicrobial peptide Bac7 by deep mutational scanning” (BMC Biology, 2022).

Test system: Escherichia coli TOP10
Assay: shrunken log2 fold change of peptide-encoding DNA abundance (4.5 h post-induction vs induction); higher = less antimicrobial activity (less host growth inhibition)
Conditions: time post-induction: 4.5 h; library: site-saturation at positions 5, 18, 19, 20
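Also: peptides expressed intracellularly from a pBAD plasmid library in pooled LB shake-flask culture, induced with 0.3% L-arabinose, DNA abundance read by NGS, three biological replicates, DESeq2 with apeglm shrinkage.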

Question: Which “shrunken log2 fold change” value does the source give for RRIRQRPPRLPRPRPRPTTEPRP here?
Answer: The value was 0.26.

Question: Which “shrunken log2 fold change” value does the source give for RRIRQRPPRLPRPRPRPTTRPRP here?
Answer: Its value is 0.215.

Question: How did the “shrunken log2 fold change” value turn out when RRIRQRPPRLPRPRPRPTVCPRP was run?
Answer: Its value is 0.0669.

Question: How did the “shrunken log2 fold change” value turn out when RRIRQRPPRLPRPRPRPTVEPRP was run?
Answer: Its value is 0.186.

Question: RRIRQRPPRLPRPRPRPTVLPRP was tested. Which “shrunken log2 fold change” value did it give?
Answer: Its value is -0.0201.

Question: RRIRQRPPRLPRPRPRPTVVPRP was tested. Which “shrunken log2 fold change” value did it give?
Answer: The value was -0.00822.

Question: With RRIRQRPPRLPRPRPRPTWHPRP as the sequence, how does the “shrunken log2 fold change” value read?
Answer: Its value is 0.0897.

Question: RRIRQRPPRLPRPRPRPVATPRP was tested. Which “shrunken log2 fold change” value did it give?
Answer: Its value is -0.00506.

Question: RRIRQRPPRLPRPRPRPVCVPRP was tested. Which “shrunken log2 fold change” value did it give?
Answer: The value was 0.18.

Question: How did the “shrunken log2 fold change” value turn out when RRIRQRPPRLPRPRPRPVDHPRP was run?
Answer: Its value is -0.335.

Question: How did the “shrunken log2 fold change” value turn out when RRIRQRPPRLPRPRPRPVDLPRP was run?
Answer: Its value is -0.0892.

Question: With RRIRQRPPRLPRPRPRPVELPRP as the sequence, how does the “shrunken log2 fold change” value read?
Answer: Its value is 4.07e-05.

Question: For RRIRQRPPRLPRPRPRPVFCPRP, which “shrunken log2 fold change” value is on record?
Answer: Its value is 0.0139.

Question: How did the “shrunken log2 fold change” value turn out when RRIRQRPPRLPRPRPRPVGAPRP was run?
Answer: The value was 0.489.

Question: RRIRQRPPRLPRPRPRPVGMPRP was tested. Which “shrunken log2 fold change” value did it give?
Answer: The value was 0.18.

Question: For RRIRQRPPRLPRPRPRPVHFPRP, which “shrunken log2 fold change” value is on record?
Answer: The value was -0.00916.

Question: With RRIRQRPPRLPRPRPRPVHIPRP as the sequence, how does the “shrunken log2 fold change” value read?
Answer: Its value is -0.1.

Question: Which “shrunken log2 fold change” value does the source give for RRIRQRPPRLPRPRPRPVIMPRP here?
Answer: Its value is -0.348.

Question: For RRIRQRPPRLPRPRPRPVKYPRP, which “shrunken log2 fold change” value is on record?
Answer: The value was -0.067.

Question: Which “shrunken log2 fold change” value does the source give for RRIRQRPPRLPRPRPRPVLCPRP here?
Answer: Its value is -0.238.

Question: Which “shrunken log2 fold change” value does the source give for RRIRQRPPRLPRPRPRPVLGPRP here?
Answer: The value was 0.226.

Question: For RRIRQRPPRLPRPRPRPVLIPRP, which “shrunken log2 fold change” value is on record?
Answer: Its value is 0.0422.

Question: How did the “shrunken log2 fold change” value turn out when RRIRQRPPRLPRPRPRPVLLPRP was run?
Answer: Its value is -0.154.

Question: With RRIRQRPPRLPRPRPRPVMQPRP as the sequence, how does the “shrunken log2 fold change” value read?
Answer: Its value is 0.0499.

Question: With RRIRQRPPRLPRPRPRPVNKPRP as the sequence, how does the “shrunken log2 fold change” value read?
Answer: The value was 0.112.

Question: Which “shrunken log2 fold change” value does the source give for RRIRQRPPRLPRPRPRPVNMPRP here?
Answer: Its value is 0.0206.

Question: With RRIRQRPPRLPRPRPRPVQLPRP as the sequence, how does the “shrunken log2 fold change” value read?
Answer: The value was 0.163.

Question: Which “shrunken log2 fold change” value does the source give for RRIRQRPPRLPRPRPRPVQQPRP here?
Answer: Its value is 0.142.

Question: How did the “shrunken log2 fold change” value turn out when RRIRQRPPRLPRPRPRPVRSPRP was run?
Answer: The value was 0.32.

Question: RRIRQRPPRLPRPRPRPVRYPRP was tested. Which “shrunken log2 fold change” value did it give?
Answer: The value was 0.0926.

Question: RRIRQRPPRLPRPRPRPVWKPRP was tested. Which “shrunken log2 fold change” value did it give?
Answer: The value was 0.121.

Question: How did the “shrunken log2 fold change” value turn out when RRIRQRPPRLPRPRPRPWHTPRP was run?
Answer: Its value is -0.169.

Question: Which “shrunken log2 fold change” value does the source give for RRIRQRPPRLPRPRPRPWIHPRP here?
Answer: Its value is -0.103.

Question: RRIRQRPPRLPRPRPRPWISPRP was tested. Which “shrunken log2 fold change” value did it give?
Answer: The value was -0.0848.

Question: How did the “shrunken log2 fold change” value turn out when RRIRQRPPRLPRPRPRPWLHPRP was run?
Answer: The value was 0.0098.

Question: With RRIRQRPPRLPRPRPRPWLSPRP as the sequence, how does the “shrunken log2 fold change” value read?
Answer: The value was 0.0988.

Question: Which “shrunken log2 fold change” value does the source give for RRIRQRPPRLPRPRPRPWMDPRP here?
Answer: Its value is -0.118.

Question: With RRIRQRPPRLPRPRPRPWPGPRP as the sequence, how does the “shrunken log2 fold change” value read?
Answer: The value was 0.116.

Question: For RRIRQRPPRLPRPRPRPWPSPRP, which “shrunken log2 fold change” value is on record?
Answer: The value was 0.168.

Question: For RRIRQRPPRLPRPRPRPWREPRP, which “shrunken log2 fold change” value is on record?
Answer: Its value is -0.0373.

Question: For RRIRQRPPRLPRPRPRPWRNPRP, which “shrunken log2 fold change” value is on record?
Answer: The value was -0.00208.

Question: With RRIRQRPPRLPRPRPRPWSAPRP as the sequence, how does the “shrunken log2 fold change” value read?
Answer: Its value is -0.277.

Question: For RRIRQRPPRLPRPRPRPWTMPRP, which “shrunken log2 fold change” value is on record?
Answer: Its value is 0.0143.

Question: For RRIRQRPPRLPRPRPRPWVRPRP, which “shrunken log2 fold change” value is on record?
Answer: Its value is -0.112.

Question: RRIRQRPPRLPRPRPRPWVWPRP was tested. Which “shrunken log2 fold change” value did it give?
Answer: Its value is 0.0723.

Question: For RRIRQRPPRLPRPRPRPWVYPRP, which “shrunken log2 fold change” value is on record?
Answer: Its value is -0.264.

Question: How did the “shrunken log2 fold change” value turn out when RRIRQRPPRLPRPRPRPWWSPRP was run?
Answer: Its value is 0.0234.

Question: For RRIRQRPPRLPRPRPRPWYCPRP, which “shrunken log2 fold change” value is on record?
Answer: The value was -1.83.

Question: RRIRQRPPRLPRPRPRPWYGPRP was tested. Which “shrunken log2 fold change” value did it give?
Answer: Its value is -0.191.

Question: For RRIRQRPPRLPRPRPRPYAPPRP, which “shrunken log2 fold change” value is on record?
Answer: The value was -0.505.

Question: RRIRQRPPRLPRPRPRPYAQPRP was tested. Which “shrunken log2 fold change” value did it give?
Answer: The value was -0.214.

Question: For RRIRQRPPRLPRPRPRPYCHPRP, which “shrunken log2 fold change” value is on record?
Answer: Its value is -0.0183.

Question: RRIRQRPPRLPRPRPRPYCIPRP was tested. Which “shrunken log2 fold change” value did it give?
Answer: Its value is -0.0416.

Question: Which “shrunken log2 fold change” value does the source give for RRIRQRPPRLPRPRPRPYDAPRP here?
Answer: Its value is 0.0382.

Question: RRIRQRPPRLPRPRPRPYDVPRP was tested. Which “shrunken log2 fold change” value did it give?
Answer: Its value is -0.00663.

Question: For RRIRQRPPRLPRPRPRPYFDPRP, which “shrunken log2 fold change” value is on record?
Answer: Its value is -0.202.

Question: With RRIRQRPPRLPRPRPRPYFYPRP as the sequence, how does the “shrunken log2 fold change” value read?
Answer: The value was -0.652.

Question: RRIRQRPPRLPRPRPRPYIHPRP was tested. Which “shrunken log2 fold change” value did it give?
Answer: Its value is -0.912.

Question: RRIRQRPPRLPRPRPRPYKKPRP was tested. Which “shrunken log2 fold change” value did it give?
Answer: The value was -0.0619.

Question: Which “shrunken log2 fold change” value does the source give for RRIRQRPPRLPRPRPRPYLEPRP here?
Answer: Its value is -0.332.

Question: For RRIRQRPPRLPRPRPRPYMPPRP, which “shrunken log2 fold change” value is on record?
Answer: The value was -0.0463.

Question: Which “shrunken log2 fold change” value does the source give for RRIRQRPPRLPRPRPRPYNIPRP here?
Answer: Its value is -0.395.

Question: RRIRQRPPRLPRPRPRPYNMPRP was tested. Which “shrunken log2 fold change” value did it give?
Answer: The value was -0.316.

Question: How did the “shrunken log2 fold change” value turn out when RRIRQRPPRLPRPRPRPYQAPRP was run?
Answer: Its value is -0.232.

Question: For RRIRQRPPRLPRPRPRPYQDPRP, which “shrunken log2 fold change” value is on record?
Answer: The value was 0.00682.

Question: How did the “shrunken log2 fold change” value turn out when RRIRQRPPRLPRPRPRPYQRPRP was run?
Answer: Its value is -0.52.

Question: How did the “shrunken log2 fold change” value turn out when RRIRQRPPRLPRPRPRPYSMPRP was run?
Answer: The value was -0.031.

Question: For RRIRQRPPRLPRPRPRPYTGPRP, which “shrunken log2 fold change” value is on record?
Answer: Its value is -0.0162.

Question: RRIRQRPPRLPRPRPRPYTWPRP was tested. Which “shrunken log2 fold change” value did it give?
Answer: The value was -0.51.

Question: With RRIRQRPPRLPRPRPRPYVEPRP as the sequence, how does the “shrunken log2 fold change” value read?
Answer: Its value is -0.537.

Question: For RRIRRRPPRLPRPRPRPAAWPRP, which “shrunken log2 fold change” value is on record?
Answer: Its value is 0.0944.

Question: With RRIRRRPPRLPRPRPRPACGPRP as the sequence, how does the “shrunken log2 fold change” value read?
Answer: The value was 0.429.

Question: Which “shrunken log2 fold change” value does the source give for RRIRRRPPRLPRPRPRPAHCPRP here?
Answer: Its value is 0.804.

Question: RRIRRRPPRLPRPRPRPAIIPRP was tested. Which “shrunken log2 fold change” value did it give?
Answer: Its value is -0.115.

Question: For RRIRRRPPRLPRPRPRPAKIPRP, which “shrunken log2 fold change” value is on record?
Answer: Its value is 0.117.
